This note sets out measurements from publication PMC4117452, “Immunolocalization of Anti-Hsf1 to the Acetabular Glands of Infectious Schistosomes Suggests a Non-Transcriptional Function for This Transcriptional Activator”.

This data set has as its target T1, MBP-SmHsf1 (Schistosoma mansoni, UniProt G4VTC5 1-658).
T1 sequence: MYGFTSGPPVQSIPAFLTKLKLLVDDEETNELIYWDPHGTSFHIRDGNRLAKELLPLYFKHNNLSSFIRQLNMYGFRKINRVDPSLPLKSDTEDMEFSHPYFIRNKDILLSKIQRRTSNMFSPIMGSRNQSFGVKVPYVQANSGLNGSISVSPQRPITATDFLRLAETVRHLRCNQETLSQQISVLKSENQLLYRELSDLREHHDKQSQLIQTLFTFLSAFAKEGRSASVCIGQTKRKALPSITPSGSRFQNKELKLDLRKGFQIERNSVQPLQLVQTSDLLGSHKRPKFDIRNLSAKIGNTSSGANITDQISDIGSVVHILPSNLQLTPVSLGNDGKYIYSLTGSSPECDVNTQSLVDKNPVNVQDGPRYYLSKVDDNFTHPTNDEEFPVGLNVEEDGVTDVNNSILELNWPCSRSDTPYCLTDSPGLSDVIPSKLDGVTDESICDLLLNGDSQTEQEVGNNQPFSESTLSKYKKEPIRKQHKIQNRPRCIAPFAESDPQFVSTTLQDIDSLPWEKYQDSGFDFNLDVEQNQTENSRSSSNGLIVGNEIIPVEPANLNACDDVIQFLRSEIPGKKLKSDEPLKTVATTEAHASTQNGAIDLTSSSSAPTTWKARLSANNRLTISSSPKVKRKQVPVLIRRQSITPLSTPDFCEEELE
Description: competition; EMSA vs oKI068(ds), 250-fold unlabeled; 'great affinity'; LightShift EMSA binding buffer with glycerol, MgCl2, poly-dIdC, NP-40 (concentrations, pH and temperature not stated), 30 min; 5% native PAGE, 0.5x TBE. The settings on record: protein: recombinant; tags: N-terminal MBP (pMAL-c5X); chain copies: 3; blunt. On the technique in general: In EMSA bound probe runs differently from free probe, usually more slowly.

B1: oKI073/074 consensus HSE (dsDNA)
DNA 1: GATCGTCATAGAAAGTTCTAGAACGATC
DNA 2: GATCGTTCTAGAACTTTCTATGACGATC
B1: the binding result was “binds”.
